To fix the notation:
T1: β-catenin (UniProt P35222 134-665, limits assumed, biotinylated in the SPR and plate assays)
T1 construct: also called beta catenin; biotinylated β-catenin
T1 sequence (looked up): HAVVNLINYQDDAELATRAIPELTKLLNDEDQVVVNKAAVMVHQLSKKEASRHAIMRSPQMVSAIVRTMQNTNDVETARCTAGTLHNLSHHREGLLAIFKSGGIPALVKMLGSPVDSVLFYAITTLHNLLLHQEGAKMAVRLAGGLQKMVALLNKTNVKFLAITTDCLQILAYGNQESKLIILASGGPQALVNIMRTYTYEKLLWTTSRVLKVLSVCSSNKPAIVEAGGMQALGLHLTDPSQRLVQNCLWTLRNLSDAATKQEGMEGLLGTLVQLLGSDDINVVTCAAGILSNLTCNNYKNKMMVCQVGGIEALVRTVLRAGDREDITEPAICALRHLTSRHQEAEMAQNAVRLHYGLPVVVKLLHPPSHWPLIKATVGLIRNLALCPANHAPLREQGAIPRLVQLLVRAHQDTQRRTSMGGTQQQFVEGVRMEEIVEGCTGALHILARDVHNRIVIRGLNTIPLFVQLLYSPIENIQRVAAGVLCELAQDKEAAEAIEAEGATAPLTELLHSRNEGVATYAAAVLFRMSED

B1: SEQ ID NO: 466 (peptide)
peptide: Ac-W[NMeA]QSILDEH[Chg]QKVW-NH2
modifications: lactam 8-12; not fully specified; printed as Ac-NH-W-NMeA-QSILDE*H-Chg-QK*VW-NH2
B2: SEQ ID NO: 468 (peptide)
peptide: WPQSILDEHGQKVW
modifications: not fully specified; Ac-NH-WPQSILDE*H-Chg-QK*VW-NH2
B3: SEQ ID NO: 233 (peptide)
peptide: DWFLICAWK
HELM: PEPTIDE1{D.W.F.L.I.C.A.W.K}$PEPTIDE1,PEPTIDE1,1:R3-9:R3$$$V2.0
SMILES: CC[C@H](C)[C@@H]1NC(=O)[C@H](CC(C)C)NC(=O)[C@H](Cc2ccccc2)NC(=O)[C@H](Cc2c[nH]c3ccccc23)NC(=O)[C@@H](N)CC(=O)NCCCC[C@@H](C(=O)O)NC(=O)[C@H](Cc2c[nH]c3ccccc23)NC(=O)[C@H](C)NC(=O)[C@H](CS)NC1=O
B4: SEQ ID NO: 460 (peptide)
peptide: Ac-W[NMeA]QSILDKH[Chg]QDVW-NH2
modifications: lactam 8-12; not fully specified; printed as Ac-NH-W-NMeA-QSILDK*H-Chg-QD*VW-NH2
B5: SEQ ID NO: 462 (peptide)
peptide: WPQSILDKHGQDVW
modifications: not fully specified; Ac-NH-WPQSILDK*H-Chg-QD*VW-NH2
B6: SEQ ID NO: 245 (peptide)
peptide: XWFLICAWD
HELM: PEPTIDE1{[O=C(CCCCCN[*:1])[*:2]].W.F.L.I.C.A.W.D}$PEPTIDE1,PEPTIDE1,1:R1-9:R3$$$V2.0
SMILES: CC[C@H](C)[C@@H]1NC(=O)[C@H](CC(C)C)NC(=O)[C@H](Cc2ccccc2)NC(=O)[C@H](Cc2c[nH]c3ccccc23)NC(=O)CCCCCNC(=O)C[C@@H](C(=O)O)NC(=O)[C@H](Cc2c[nH]c3ccccc23)NC(=O)[C@H](C)NC(=O)[C@H](CS)NC1=O
B7: SEQ ID NO: 238 (peptide)
peptide: Ac-LISFWG-OH
B8: SEQ ID NO: 246 (peptide)
peptide: XWFLIXAWD
HELM: PEPTIDE1{[O=C(CCCCCN[*:1])[*:2]].W.F.L.I.[Abu].A.W.D}$PEPTIDE1,PEPTIDE1,1:R1-9:R3$$$V2.0
SMILES: CC[C@@H]1NC(=O)[C@H]([C@@H](C)CC)NC(=O)[C@H](CC(C)C)NC(=O)[C@H](Cc2ccccc2)NC(=O)[C@H](Cc2c[nH]c3ccccc23)NC(=O)CCCCCNC(=O)C[C@@H](C(=O)O)NC(=O)[C@H](Cc2c[nH]c3ccccc23)NC(=O)[C@H](C)NC1=O
B9: SEQ ID NO: 244 (peptide)
peptide: KWFLIXAWD
HELM: PEPTIDE1{K.W.F.L.I.[Abu].A.W.D}$PEPTIDE1,PEPTIDE1,1:R3-9:R3$$$V2.0
SMILES: CC[C@@H]1NC(=O)[C@H]([C@@H](C)CC)NC(=O)[C@H](CC(C)C)NC(=O)[C@H](Cc2ccccc2)NC(=O)[C@H](Cc2c[nH]c3ccccc23)NC(=O)[C@@H](N)CCCCNC(=O)C[C@@H](C(=O)O)NC(=O)[C@H](Cc2c[nH]c3ccccc23)NC(=O)[C@H](C)NC1=O
B10: SEQ ID NO: 282/493 (peptide)
peptide: H-RKKRRQRRR[Peg2]KW[Cha]LI[Abu]AWD-OH
B11: SEQ ID NO: 230 (peptide)
peptide: MWKLIEFWG
HELM: PEPTIDE1{M.W.K.L.I.E.F.W.G}$PEPTIDE1,PEPTIDE1,3:R3-6:R3$$$V2.0
SMILES: CC[C@H](C)[C@@H]1NC(=O)[C@H](CC(C)C)NC(=O)[C@@H](NC(=O)[C@H](Cc2c[nH]c3ccccc23)NC(=O)[C@@H](N)CCSC)CCCCNC(=O)CC[C@@H](C(=O)N[C@@H](Cc2ccccc2)C(=O)N[C@@H](Cc2c[nH]c3ccccc23)C(=O)NCC(=O)O)NC1=O

Values joined by “and” are separate entries in the source; they are usually repeats but may differ in a detail not shown here. Equal entries are not always repeated. Bridges are numbered along the chain shown (N, C = ends). [ ]: non-standard residue; d: D form. Cha = N[C@@H](CC1CCCCC1)C(=O)O; Chg = N[C@H](C(=O)O)C1CCCCC1; NMeA = CN[C@@H](C)C(=O)O; Abu = CC[C@H](N)C(=O)O

The target of this test is T1, β-catenin. The test can be described thus: competitive FP. An excerpt: Fluorescence polarization (FP) is another method used to analyze protein-ligand interactions. This methodology measures the change in fluorescence light emitted by a labelled compound free vs. conjugated to another compound in solution. Upon binding of the fluorescent molecule to a complex, polarization increases because of limited rotation of the fluorescent tracer. Competitive FP is often utilized in drug screens as it is formatted for high throughput screens in a plate format. This immunoassay is performed by introducing a non-conjugated drug to compete for binding to the labelled competitor-ligand complex, leading to a reduction in polarization. […] Exemplary methodology is described in Example 13. Data were analyzed and plotted in Microsoft Excel (Microsoft, Redmond, WA).
Varying concentrations of β-catenin inhibitor candidate (SEQ ID NO: 404) were then added in a series of serial dilutions from 10 nM to 30 uM of inhibitor in different wells of the plate. The fluorescence polarization was read by Infinite M1000 (Tecan, Baldwin Park CA) at excitation wavelength of 470 nm and measured at emission wavelength of 520 nm. […] The experiments were performed three times and data were analyzed and plotted in Microsoft Excel (Microsoft, Redmond, WA).
The term Kd denotes the concentration at which binding is half-saturated. Low readings indicate higher affinity, high ones lower affinity. For B1, the Kd was at most 0.4 µM.
The value for B2 was at most 0.4 µM; that for B3 was at most 0.4 µM.
In turn, B4 yielded a Kd of at most 0.4 µM.
For B5 the value was at most 0.4 µM.
The value for B6 was at most 0.4 µM; that for B7 was > 10 µM and ≤ 30 µM.
The value for B8 was at most 0.4 µM; that for B9 was > 0.4 µM and ≤ 1 µM.
For B10, the Kd is at most 0.4 µM.
Regarding B11, the Kd was at most 0.4 µM.

(Values after patent US20260098059A1 (ENDOMET BIOSCIENCES, published 2026).)
